Read-outs that look alike come from different tables or passages of the source.
Columns and labels:
Test in all cases: BLI
[1] = molecular target: T1, epidermal growth factor receptor (EGFR), soluble, as used in BLI (UniProt P00533 25-645)
T1 construct: extracellular domain; also called EGFR-ECD

[2] = molecular target: T2, programmed death-ligand 1 (PD-L1), soluble, as used in BLI (UniProt Q9NZQ7 19-238)
T2 construct: extracellular domain; also called PD-L1-ECD

[3] = molecular target: T3, CD16 (UniProt P08637 17-208)
T3 construct: also called Fcγ-receptor IIIa

[4] = molecular target: T1, epidermal growth factor receptor …; remark: listed apart in the source
[5] = molecular target: T2, programmed death-ligand 1 (PD-L1), …; remark: listed apart in the source
[6] = molecular target: T3, CD16; remark: listed apart in the source

T2 sequence (Q9NZQ7 19-238): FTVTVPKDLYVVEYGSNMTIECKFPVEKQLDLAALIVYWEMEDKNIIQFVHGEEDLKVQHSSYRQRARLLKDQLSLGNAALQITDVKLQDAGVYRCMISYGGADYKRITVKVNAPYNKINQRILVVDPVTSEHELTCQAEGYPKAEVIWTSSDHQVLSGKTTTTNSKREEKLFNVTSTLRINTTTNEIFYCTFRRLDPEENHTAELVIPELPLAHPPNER
T3 sequence (P08637 17-208): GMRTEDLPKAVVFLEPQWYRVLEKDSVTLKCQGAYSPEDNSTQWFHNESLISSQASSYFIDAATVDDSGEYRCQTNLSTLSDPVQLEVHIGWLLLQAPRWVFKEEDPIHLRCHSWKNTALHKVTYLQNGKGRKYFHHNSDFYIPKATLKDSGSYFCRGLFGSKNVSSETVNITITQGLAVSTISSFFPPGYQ

Row | Binder | Kd [1] [nM] | Kd [3] [nM] | Kd [4] [nM] | Kd [6] [nM] | Kd [2] [nM] | Kd [5] [nM]
1 | HC16/ICI2 KiH variant: HCP-LCE on one side and CD16 binder HC16 on the other, paired with the HCP-LCE light chain (bispecific antibody) VH 1: AVTLDESGGGLQTPGGALSLVCKASGFDFSSYDMAWVRQAPGKGLEWVAGIKSNGPWTNYGAAVKGRATISRDNGQSTVRLQLNNLRAEDTAIYYCAKPGAGYVGWDAAGTIDSWGHGTEVIVSS VH 2: AVTLDESGGGLQTPGGTLSLVCRASGFSFSSSDMFWVRQAPGKGLEYVAQISKDGSGKYYGAAVKGRATISRDNGQSTVRLQLNNLRAEDTGIYFCAKSGRGYVTAGRIDTWGHGTEVIVSS light: ALTQPSSVSANLGETVKITCSGGAYSDCGWYQQKSPGSAPVTVIYYNDKRPSDIPSRFSGSTFGSTATLTITGVQAEDEAVYYCGGYDSRTGYVGVFGAGTTLTVLGQPKANPTVTLFPPSSEELQANKATLVCLISDFYPGAVTVAWKADGSPVKAGVETTKPSKQSNNKYAASSYLSLTPEQWKSHRSYSCQVTHEGSTVEKTVAPTECS | 320 | 21.9 | – | – | 57.7 | –
2 | ICI2_outer and NKE14_inner trispecific variant V2 (bispecific antibody, human IgG1, lambda, L234A L235A, Two Fabs on each side, common light chain LCE; also called ICI2_outer Fab) heavy: not shown light: ALTQPSSVSANLGETVKITCSGGAYSDCGWYQQKSPGSAPVTVIYYNDKRPSDIPSRFSGSTFGSTATLTITGVQAEDEAVYYCGGYDSRTGYVGVFGAGTTLTVLGQPKANPTVTLFPPSSEELQANKATLVCLISDFYPGAVTVAWKADGSPVKAGVETTKPSKQSNNKYAASSYLSLTPEQWKSHRSYSCQVTHEGSTVEKTVAPTECS | – | – | 460 | 382 | – | 97.6
3 | HC16_outer/ICI2_inner trispecific variant (full-length HC16_outer and ICI2_inner LALA construct) (bispecific antibody, human IgG1, lambda, L234A L235A, Two Fabs on each side, common light chain LCE; also called HC16_outer/ICI2_inner LALA) heavy: not shown light: ALTQPSSVSANLGETVKITCSGGAYSDCGWYQQKSPGSAPVTVIYYNDKRPSDIPSRFSGSTFGSTATLTITGVQAEDEAVYYCGGYDSRTGYVGVFGAGTTLTVLGQPKANPTVTLFPPSSEELQANKATLVCLISDFYPGAVTVAWKADGSPVKAGVETTKPSKQSNNKYAASSYLSLTPEQWKSHRSYSCQVTHEGSTVEKTVAPTECS | 331 | 17 | – | – | 68 | –
4 | NKE14 + LCE comparative mAb (CD16-binding antibody NKE14 heavy chain with LCE light chain) (antibody, LCE is the HCP-LCE light chain) VH: AVTLDESGGGLQTPGGGLSLVCKGSGFTFSSYNMGWVRQAPGKGLEFVASIDDDGSFTHYGAAVKGRATISRDNGQSTVRLQLNNLRVEDSGIYYCAKSSINGYRCSGGLCVPYITGNIDAWGHGTEVIVSS light: ALTQPSSVSANLGETVKITCSGGAYSDCGWYQQKSPGSAPVTVIYYNDKRPSDIPSRFSGSTFGSTATLTITGVQAEDEAVYYCGGYDSRTGYVGVFGAGTTLTVLGQPKANPTVTLFPPSSEELQANKATLVCLISDFYPGAVTVAWKADGSPVKAGVETTKPSKQSNNKYAASSYLSLTPEQWKSHRSYSCQVTHEGSTVEKTVAPTECS | – | – | – | 151 | – | –
5 | Knob-into-Hole (KiH) trispecific variant V1: HCP-LCE on one side and heavy chain of CD16 binder NKE14, paired with the HCP-LCE light chain (bispecific antibody, human IgG1, lambda, L234A L235A, Trispecific (EGFR, PD-L1, CD16)) heavy 1: AVTLDESGGGLQTPGGALSLVCKASGFDFSSYDMAWVRQAPGKGLEWVAGIKSNGPWTNYGAAVKGRATISRDNGQSTVRLQLNNLRAEDTAIYYCAKPGAGYVGWDAAGTIDSWGHGTEVIVSSASTKGPSVFPLAPSSKSTSGGTAALGCLVKDYFPEPVTVSWNSGALTSGVHTFPAVLQSSGLYSLSSVVTVPSSSLGTQTYICNVNHKPSNTKVDKRVEPKSCDKTHTCPPCPAPEAAGGPSVFLFPPKPKDTLMISRTPEVTCVVVDVSHEDPEVKFNWYVDGVEVHNAKTKPREEQYNSTYRVVSVLTVLHQDWLNGKEYKCKVSNKALPAPIEKTISKAKGQPREPQVYTLPPSREEMTKNQVSLWCLVKGFYPSDIAVEWESNGQPENNYKTTPPVLDSDGSFFLYSKLTVDKSRWQQGNVFSCSVMHEALHNHYTQKSLSLSPG heavy 2: AVTLDESGGGLQTPGGGLSLVCKGSGFTFSSYNMGWVRQAPGKGLEFVASIDDDGSFTHYGAAVKGRATISRDNGQSTVRLQLNNLRVEDSGIYYCAKSSINGYRCSGGLCVPYITGNIDAWGHGTEVIVSSASTKGPSVFPLAPSSKSTSGGTAALGCLVKDYFPEPVTVSWNSGALTSGVHTFPAVLQSSGLYSLSSVVTVPSSSLGTQTYICNVNHKPSNTKVDKRVEPKSCDKTHTCPPCPAPEAAGGPSVFLFPPKPKDTLMISRTPEVTCVVVDVSHEDPEVKFNWYVDGVEVHNAKTKPREEQYNSTYRVVSVLTVLHQDWLNGKEYKCKVSNKALPAPIEKTISKAKGQPREPQVYTLPPSREEMTKNQVSLSCAVKGFYPSDIAVEWESNGQPENNYKTTPPVLDSDGSFFLVSKLTVDKSRWQQGNVFSCSVMHEALHNRFTQKSLSLSPG light: ALTQPSSVSANLGETVKITCSGGAYSDCGWYQQKSPGSAPVTVIYYNDKRPSDIPSRFSGSTFGSTATLTITGVQAEDEAVYYCGGYDSRTGYVGVFGAGTTLTVLGQPKANPTVTLFPPSSEELQANKATLVCLISDFYPGAVTVAWKADGSPVKAGVETTKPSKQSNNKYAASSYLSLTPEQWKSHRSYSCQVTHEGSTVEKTVAPTECS | – | – | 570 | 277 | – | 104

Continued, in another order:

Row | Kd [1] [nM] | Kd [3] [nM] | Kd [4] [nM] | Kd [6] [nM] | Binder | Kd [2] [nM] | Kd [5] [nM]
6 | – | – | 763 | 346 | one-armed ICI2_outer and NKE14_inner variant V3 (bispecific antibody, human IgG1, lambda, L234A L235A, also called oaICI2_outer) heavy 1: AVTLDESGGGLQTPGGALSLVCKASGFDFSSYDMAWVRQAPGKGLEWVAGIKSNGPWTNYGAAVKGRATISRDNGQSTVRLQLNNLRAEDTAIYYCAKPGAGYVGWDAAGTIDSWGHGTEVIVSSASTKGPSVFPLAPSSKSTSGGTAALGCLVKDYFPEPVTVSWNSGALTSGVHTFPAVLQSSGLYSLSSVVTVPSSSLGTQTYICNVNHKPSNTKVDKRVEPKSCDGGGGSGGGGSAVTLDESGGGLQTPGGGLSLVCKGSGFTFSSYNMGWVRQAPGKGLEFVASIDDDGSFTHYGAAVKGRATISRDNGQSTVRLQLNNLRVEDSGIYYCAKSSINGYRCSGGLCVPYITGNIDAWGHGTEVIVSSASTKGPSVFPLAPSSKSTSGGTAALGCLVKDYFPEPVTVSWNSGALTSGVHTFPAVLQSSGLYSLSSVVTVPSSSLGTQTYICNVNHKPSNTKVDKRVEPKSCDKTHTCPPCPAPEAAGGPSVFLFPPKPKDTLMISRTPEVTCVVVDVSHEDPEVKFNWYVDGVEVHNAKTKPREEQYNSTYRVVSVLTVLHQDWLNGKEYKCKVSNKALPAPIEKTISKAKGQPREPQVYTLPPSREEMTKNQVSLWCLVKGFYPSDIAVEWESNGQPENNYKTTPPVLDSDGSFFLYSKLTVDKSRWQQGNVFSCSVMHEALHNHYTQKSLSLSPG heavy 2: EPKSCDKTHTCPPCPAPEAAGGPSVFLFPPKPKDTLMISRTPEVTCVVVDVSHEDPEVKFNWYVDGVEVHNAKTKPREEQYNSTYRVVSVLTVLHQDWLNGKEYKCKVSNKALPAPIEKTISKAKGQPREPQVYTLPPSREEMTKNQVSLSCAVKGFYPSDIAVEWESNGQPENNYKTTPPVLDSDGSFFLVSKLTVDKSRWQQGNVFSCSVMHEALHNRFTQKSLSLSPG light: ALTQPSSVSANLGETVKITCSGGAYSDCGWYQQKSPGSAPVTVIYYNDKRPSDIPSRFSGSTFGSTATLTITGVQAEDEAVYYCGGYDSRTGYVGVFGAGTTLTVLGQPKANPTVTLFPPSSEELQANKATLVCLISDFYPGAVTVAWKADGSPVKAGVETTKPSKQSNNKYAASSYLSLTPEQWKSHRSYSCQVTHEGSTVEKTVAPTECS | – | 115
7 | – | – | 603 | 302 | NKE14_outer and ICI2_inner trispecific variant V4 (bispecific antibody, human IgG1, lambda, L234A L235A, Two Fabs on each side, common light chain LCE; also called NKE14_outer Fab) heavy: not shown light: ALTQPSSVSANLGETVKITCSGGAYSDCGWYQQKSPGSAPVTVIYYNDKRPSDIPSRFSGSTFGSTATLTITGVQAEDEAVYYCGGYDSRTGYVGVFGAGTTLTVLGQPKANPTVTLFPPSSEELQANKATLVCLISDFYPGAVTVAWKADGSPVKAGVETTKPSKQSNNKYAASSYLSLTPEQWKSHRSYSCQVTHEGSTVEKTVAPTECS | – | 125
8 | – | – | 982 | 342 | one-armed NKE14_outer and ICI2_inner variant V5 (bispecific antibody, human IgG1, lambda, L234A L235A, also called oaNKE14_outer) heavy 1: AVTLDESGGGLQTPGGGLSLVCKGSGFTFSSYNMGWVRQAPGKGLEFVASIDDDGSFTHYGAAVKGRATISRDNGQSTVRLQLNNLRVEDSGIYYCAKSSINGYRCSGGLCVPYITGNIDAWGHGTEVIVSSASTKGPSVFPLAPSSKSTSGGTAALGCLVKDYFPEPVTVSWNSGALTSGVHTFPAVLQSSGLYSLSSVVTVPSSSLGTQTYICNVNHKPSNTKVDKRVEPKSCDGGGGSGGGGSAVTLDESGGGLQTPGGALSLVCKASGFDFSSYDMAWVRQAPGKGLEWVAGIKSNGPWTNYGAAVKGRATISRDNGQSTVRLQLNNLRAEDTAIYYCAKPGAGYVGWDAAGTIDSWGHGTEVIVSSASTKGPSVFPLAPSSKSTSGGTAALGCLVKDYFPEPVTVSWNSGALTSGVHTFPAVLQSSGLYSLSSVVTVPSSSLGTQTYICNVNHKPSNTKVDKRVEPKSCDKTHTCPPCPAPEAAGGPSVFLFPPKPKDTLMISRTPEVTCVVVDVSHEDPEVKFNWYVDGVEVHNAKTKPREEQYNSTYRVVSVLTVLHQDWLNGKEYKCKVSNKALPAPIEKTISKAKGQPREPQVYTLPPSREEMTKNQVSLWCLVKGFYPSDIAVEWESNGQPENNYKTTPPVLDSDGSFFLYSKLTVDKSRWQQGNVFSCSVMHEALHNHYTQKSLSLSPG heavy 2: EPKSCDKTHTCPPCPAPEAAGGPSVFLFPPKPKDTLMISRTPEVTCVVVDVSHEDPEVKFNWYVDGVEVHNAKTKPREEQYNSTYRVVSVLTVLHQDWLNGKEYKCKVSNKALPAPIEKTISKAKGQPREPQVYTLPPSREEMTKNQVSLSCAVKGFYPSDIAVEWESNGQPENNYKTTPPVLDSDGSFFLVSKLTVDKSRWQQGNVFSCSVMHEALHNRFTQKSLSLSPG light: ALTQPSSVSANLGETVKITCSGGAYSDCGWYQQKSPGSAPVTVIYYNDKRPSDIPSRFSGSTFGSTATLTITGVQAEDEAVYYCGGYDSRTGYVGVFGAGTTLTVLGQPKANPTVTLFPPSSEELQANKATLVCLISDFYPGAVTVAWKADGSPVKAGVETTKPSKQSNNKYAASSYLSLTPEQWKSHRSYSCQVTHEGSTVEKTVAPTECS | – | 137
